Assay: yeast display, Sf9 membrane polyspecificity reagent, FACS + sequencing; frameworks hold sequencing errors
Summary of the method: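 A nanobody's polyreactivity label depends on the gate it was sorted from. Yeast display cells were stained with 10% biotinylated, detergent-solubilized Sf9 membrane reagent for 1 hour at 4 °C, enriched on streptavidin microbeads and sorted by FACS. The low and high (top ~1%) gates were set on anti-HA fluorescence for expression and streptavidin fluorescence for reagent binding.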
With “QVQLVESGGGLVQAGGSLRLSCAASGIIFNRYAMGWYRQAPGKERELVAAISASGDSTYYADSVKGRFTISRDNAKYTVYLQMNSLKPEDTAVDYCAADYGYRYDYWGHGTQVTVSS” the “polyreactivity (PSR sort gate)” value was “low polyreactivity”.
With “QVQLVESGGGLVQAGGSLRLSCAASGIIFNTYAMGWYRQAPGKERELVAAIDSRDASTYADSVKGRYTISRDNAKNTVYLQMNSLIPEDTAVYYCAATHNVDLISEVYYWGQGTQVTVSS” the “polyreactivity (PSR sort gate)” value was “low polyreactivity”.
With “QVQLVESGGGLVQAGGSLRLSCAASGIIFPDYVMGWYRQAPGKERELVATITNDSSTTYADSVKGRFTISRDNAKNTVYLQMNSLKPEDTAVYYCAAPVDYQGDYWGQGTQVTVSS” the “polyreactivity (PSR sort gate)” value was “low polyreactivity”.
With “QVQLVESGGGLVQAGGSLRLSCAASGIIFPEYDMGWYRQAPGKERELVAAITKSDGRTYYADSVKGRFTISRDNAKNTVYLQMNSLKPEDTAVYYCNADPRVVAYLGFDSWGQGTQVTVSS” the “polyreactivity (PSR sort gate)” value was “low polyreactivity”.
In the case of “QVQLVESGGGLVQAGGSLRLSCAASGIIFPFYVMGWYRQAPGKERELVAAITWSGDGTYYADSVKGRFTISRDNAKNTVYLQMNSLKPEDTAVYYCAAQWYYGGVKYYYWGQGTQVTVSS”, the “polyreactivity (PSR sort gate)” value is reported as “low polyreactivity”.
With “QVQLVESGGGLVQAGGSLRLSCAASGIIFPLYAMGWYRQAPGKERELVADITRGGSTYYADSVKGRFTISRDNAKNTVYLQMNSLKPEDTAVYYGNKQKRWTYSHYFPTTYDYWGQGTQVTVSS” the “polyreactivity (PSR sort gate)” value was “high polyreactivity”.
In the case of “QVQLVESGGGLVQAGGSLRLSCAASGIIFPNYAMGWYRQAPGKERELFAAITWRGGGTYYADSVKGRFTISRDNAKNTVYLQMNSLKPEDTAVYYCAAQKAYPRRYYGYKWEYYYWGQGSQVTVSS”, the “polyreactivity (PSR sort gate)” value is reported as “high polyreactivity”.
For “QVQLVESGGGLVQAGGSLRLSCAASGIIFPNYAMGWYRQAPGKERELVAAITTSGTSTYYADSVKGRFTISRDNAKNTVYLQMNSLKPEDTAVYYCAARPTGHWGGRYYYWGQGTQVTVSS”, the “polyreactivity (PSR sort gate)” value was “high polyreactivity”.
In the case of “QVQLVESGGGLVQAGGSLRLSCAASGIIFPRYAMGWYRQAPGKERELVAAITIGGRTNYADSVKGRFTISRDNAKNTVYLQMNSLKPEDTAVYYCAAQTYVPYYEYDYWGQGTQVTVSS”, the “polyreactivity (PSR sort gate)” value is reported as “low polyreactivity”.
In the case of “QVQLVESGGGLVQAGGSLRLSCAASGIIFPYNAMGWYTQAPGKERELVAAITGGGSTYYADSVKGRFTISRDNAKNTVYLQMNSLKPEDTAVYYCAADRSGPGYDYWGQGTQVTVSS”, the “polyreactivity (PSR sort gate)” value is reported as “low polyreactivity”.
In the case of “QVQLVESGGGLVQAGGSLRLSCAASGIIFPYNVMGWYRQAPGKERELVAAITRGAASTYYADSVKGRFTISRDNAKNTVYLQMNSLKPEDTAVYYCATDPVSTRGSDYWGQGTQVTVSS”, the “polyreactivity (PSR sort gate)” value is reported as “high polyreactivity”.
For “QVQLVESGGGLVQAGGSLRLSCAASGIIFQGYVMGWYRQAPGKERELVAVISRTGGSTYYADSVKGRFTISRDNAKNTVYLQMNSLKPEDTAVYYSSAGTPRLRYLQGHRMNYWGKGTQVTVSS”, the “polyreactivity (PSR sort gate)” value was “high polyreactivity”.
With “QVQLVESGGGLVQAGGSLRLSCAASGIIFQRNDMGWYRQAPGKERELVANIRDGGITYADSVKGRFTISRDNAKNTVYLQMNSLKPEDTAVYYCARDDTSPGFGDQSSNAAYYYWGQGTQVTVSS” the “polyreactivity (PSR sort gate)” value was “low polyreactivity”.
With “QVQLVESGGGLVQAGGSLRLSCAASGIIFRAYAMGWYRQAPGKERELVAAITSRGGSTYYADSVKGRFTISRDNAKNTVYLQMNSLKPEDTAVYYCAADFTIPYWDAKFDYWGQGTQVTVSS” the “polyreactivity (PSR sort gate)” value was “low polyreactivity”.
In the case of “QVQLVESGGGLVQAGGSLRLSCAASGIIFRFYAMGWSRQAPGKERELVATISKRGGTTYYADSVKGRFTISRDYAMNTVDLQMNSLKPEDSAVYYCAVRLYLEMDYWGQGTQVTVSS”, the “polyreactivity (PSR sort gate)” value is reported as “high polyreactivity”.
In the case of “QVQLVESGGGLVQAGGSLRLSCAASGIIFRFYAMGWYRQAPGKERELVAVITSRSDSTYYADSVKGRFTISRDNAKNTVYLQMNSLKPEDTAVYYCNARYPWYYRYSTYDYWGQGTQVTVSS”, the “polyreactivity (PSR sort gate)” value is reported as “high polyreactivity”.
